# From article PMC10758103
# Target: T1, p32 stably overexpressed from lentiviral pCDH-p32, Q07021
# T1 chain: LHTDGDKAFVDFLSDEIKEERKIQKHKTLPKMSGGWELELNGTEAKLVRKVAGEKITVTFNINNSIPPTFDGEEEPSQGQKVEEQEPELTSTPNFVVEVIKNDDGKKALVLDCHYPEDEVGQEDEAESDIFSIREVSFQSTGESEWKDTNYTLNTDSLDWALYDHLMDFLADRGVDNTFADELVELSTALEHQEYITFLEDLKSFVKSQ
# Test: cross-linking; 786-O-pCDH and 786-O-p32 cells treated with gradients of elesclomol and CuSO4; 0.1 mM disuccinimidyl suberate (DSS) on cells, 30 minutes at room temperature, quenched with 50 mM Tris; 8% SDS-PAGE and western blot
# Details: remark: other sources report otherwise
binder,measurement,value
"p32 stably overexpressed from lentiviral pCDH-p32, Q07021 74-282 (natural protein) LHTDGDKAFVDFLSDEIKEERKIQKHKTLPKMSGGWELELNGTEAKLVRKVAGEKITVTFNINNSIPPTFDGEEEPSQGQKVEEQEPELTSTPNFVVEVIKNDDGKKALVLDCHYPEDEVGQEDEAESDIFSIREVSFQSTGESEWKDTNYTLNTDSLDWALYDHLMDFLADRGVDNTFADELVELSTALEHQEYITFLEDLKSFVKSQ",stoichiometry N,2
